From PMC10397247

Experiments:
4H145-bA = target: T1, 4H145-bA; assay: two-hybrid library CCNG1; settings: mean of both orientations;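 further: natural log of median RNA to DNA barcode read ratio; higher means stronger binding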
T1 chain: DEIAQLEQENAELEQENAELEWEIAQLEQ

4H2619-bA = target: T2, 4H2619-bA; assay: two-hybrid library CCNG1;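 further: natural log of median RNA to DNA barcode read ratio; higher means stronger binding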
T2 chain: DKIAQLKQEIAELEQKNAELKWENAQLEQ

4H2691-bA = target: T3, 4H2691-bA; assay: two-hybrid library CCNG1;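 further: natural log of median RNA to DNA barcode read ratio; higher means stronger binding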
T3 chain: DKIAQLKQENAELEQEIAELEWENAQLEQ

4H3070-bA = target: T4, 4H3070-bA; assay: two-hybrid library CCNG1; settings: mean of both orientations;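 further: natural log of median RNA to DNA barcode read ratio; higher means stronger binding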
T4 chain: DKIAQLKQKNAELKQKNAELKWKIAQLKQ

4H342-bA = target: T5, 4H342-bA; assay: two-hybrid library CCNG1
T5 chain: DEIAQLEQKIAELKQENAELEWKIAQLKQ

4H3632-bA = target: T6, 4H3632-bA; assay: two-hybrid library CCNG1
T6 chain: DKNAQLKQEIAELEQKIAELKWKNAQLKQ

4H496-bA = target: T7, 4H496-bA; assay: two-hybrid library CCNG1
T7 chain: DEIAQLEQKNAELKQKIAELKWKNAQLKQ

P1-AA = target: T8, P1-AA; assay: two-hybrid library CCmax
T8 chain: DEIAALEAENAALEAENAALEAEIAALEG

P10-AA = target: T9, P10-AA; assay: two-hybrid library CCmax; settings: mean of both orientations
T9 chain: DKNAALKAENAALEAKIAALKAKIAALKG

P11-AA = target: T10, P11-AA; assay: two-hybrid library CCmax; settings: mean of both orientations
T10 chain: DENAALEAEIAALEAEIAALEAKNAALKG

P12-AA = target: T11, P12-AA; assay: two-hybrid library CCmax; settings: mean of both orientations
T11 chain: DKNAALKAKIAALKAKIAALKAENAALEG

P2-AA-12HAA-D = target: T12, P2-AA-12HAA-D; assay: two-hybrid library CCmax; settings: mean of both orientations
T12 chain: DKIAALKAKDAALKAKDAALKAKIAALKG

P2-AA-12HAA-E = target: T13, P2-AA-12HAA-E; assay: two-hybrid library CCmax; settings: mean of both orientations
T13 chain: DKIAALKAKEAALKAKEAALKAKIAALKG

P2-AA-12HAA-H = target: T14, P2-AA-12HAA-H; assay: two-hybrid library CCmax; settings: mean of both orientations
T14 chain: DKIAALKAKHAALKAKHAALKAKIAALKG

P2-AA-12HAA-I = target: T15, P2-AA-12HAA-I; assay: two-hybrid library CCmax; settings: mean of both orientations
T15 chain: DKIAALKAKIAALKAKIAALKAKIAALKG

P2-AA-12HAA-K = target: T16, P2-AA-12HAA-K; assay: two-hybrid library CCmax; settings: mean of both orientations
T16 chain: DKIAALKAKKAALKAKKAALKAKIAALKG

P2-AA-12HAA-L = target: T17, P2-AA-12HAA-L; assay: two-hybrid library CCmax; settings: mean of both orientations
T17 chain: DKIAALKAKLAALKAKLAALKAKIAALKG

P2-AA-12HAA-R = target: T18, P2-AA-12HAA-R; assay: two-hybrid library CCmax; settings: mean of both orientations
T18 chain: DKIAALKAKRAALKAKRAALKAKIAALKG

P2-AA-12HAA-S = target: T19, P2-AA-12HAA-S; assay: two-hybrid library CCmax; settings: mean of both orientations
T19 chain: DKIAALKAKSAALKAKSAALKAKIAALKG

P2-AA-12HAA-T = target: T20, P2-AA-12HAA-T; assay: two-hybrid library CCmax; settings: mean of both orientations
T20 chain: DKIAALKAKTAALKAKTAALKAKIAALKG

P2-AA-12HAA-V = target: T21, P2-AA-12HAA-V; assay: two-hybrid library CCmax; settings: mean of both orientations
T21 chain: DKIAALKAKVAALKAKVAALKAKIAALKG

P2-AA-12HAA-Y = target: T22, P2-AA-12HAA-Y; assay: two-hybrid library CCmax; settings: mean of both orientations
T22 chain: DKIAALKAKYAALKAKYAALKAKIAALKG

P2-AA-12HGe-A = target: T23, P2-AA-12HGe-A; assay: two-hybrid library CCmax; settings: mean of both orientations
T23 chain: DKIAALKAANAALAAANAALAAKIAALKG

P2-AA-12HGe-D = target: T24, P2-AA-12HGe-D; assay: two-hybrid library CCmax; settings: mean of both orientations
T24 chain: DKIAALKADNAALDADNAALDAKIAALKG

P2-AA-12HGe-E = target: T25, P2-AA-12HGe-E; assay: two-hybrid library CCmax; settings: mean of both orientations
T25 chain: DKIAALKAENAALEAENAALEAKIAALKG

P2-AA-12HGe-H = target: T26, P2-AA-12HGe-H; assay: two-hybrid library CCmax; settings: mean of both orientations
T26 chain: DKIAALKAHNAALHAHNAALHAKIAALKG

P2-AA-12HGe-M = target: T27, P2-AA-12HGe-M; assay: two-hybrid library CCmax; settings: mean of both orientations
T27 chain: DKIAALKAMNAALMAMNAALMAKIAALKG

P2-AA-12HGe-Q = target: T28, P2-AA-12HGe-Q; assay: two-hybrid library CCmax; settings: mean of both orientations
T28 chain: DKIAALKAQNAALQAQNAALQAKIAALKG

P2-AA-12HGe-R = target: T29, P2-AA-12HGe-R; assay: two-hybrid library CCmax; settings: mean of both orientations
T29 chain: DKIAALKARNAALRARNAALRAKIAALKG

P2-AA-12HGe-S = target: T30, P2-AA-12HGe-S; assay: two-hybrid library CCmax; settings: mean of both orientations
T30 chain: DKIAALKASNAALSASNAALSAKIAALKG

P2-AA-12HGe-T = target: T31, P2-AA-12HGe-T; assay: two-hybrid library CCmax; settings: mean of both orientations
T31 chain: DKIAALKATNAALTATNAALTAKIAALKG

P2-AA-12HGe-W = target: T32, P2-AA-12HGe-W; assay: two-hybrid library CCmax; settings: mean of both orientations
T32 chain: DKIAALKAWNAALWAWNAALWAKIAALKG

P2-AA-1HAA-D = target: T33, P2-AA-1HAA-D; assay: two-hybrid library CCmax; settings: mean of both orientations
T33 chain: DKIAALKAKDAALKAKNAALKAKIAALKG

P2-AA-1HAA-E = target: T34, P2-AA-1HAA-E; assay: two-hybrid library CCmax; settings: mean of both orientations
T34 chain: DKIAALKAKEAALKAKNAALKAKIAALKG

P2-AA-1HAA-H = target: T35, P2-AA-1HAA-H; assay: two-hybrid library CCmax; settings: mean of both orientations
T35 chain: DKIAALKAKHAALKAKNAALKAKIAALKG

P2-AA-1HAA-I = target: T36, P2-AA-1HAA-I; assay: two-hybrid library CCmax; settings: mean of both orientations
T36 chain: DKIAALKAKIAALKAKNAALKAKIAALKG

P2-AA-1HAA-R = target: T37, P2-AA-1HAA-R; assay: two-hybrid library CCmax; settings: mean of both orientations
T37 chain: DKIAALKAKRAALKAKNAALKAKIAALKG

P2-AA-1HAA-S = target: T38, P2-AA-1HAA-S; assay: two-hybrid library CCmax; settings: mean of both orientations
T38 chain: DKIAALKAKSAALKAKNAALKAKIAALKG

P2-AA-1HAA-T = target: T39, P2-AA-1HAA-T; assay: two-hybrid library CCmax; settings: mean of both orientations
T39 chain: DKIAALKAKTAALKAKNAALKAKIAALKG

P2-AA-1HAA-V = target: T40, P2-AA-1HAA-V; assay: two-hybrid library CCmax; settings: mean of both orientations
T40 chain: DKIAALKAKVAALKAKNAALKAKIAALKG

P2-AA-1HGe-A = target: T41, P2-AA-1HGe-A; assay: two-hybrid library CCmax; settings: mean of both orientations
T41 chain: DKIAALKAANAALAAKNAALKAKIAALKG

P2-AA-1HGe-D = target: T42, P2-AA-1HGe-D; assay: two-hybrid library CCmax; settings: mean of both orientations
T42 chain: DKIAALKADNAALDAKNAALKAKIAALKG

P2-AA-1HGe-M = target: T43, P2-AA-1HGe-M; assay: two-hybrid library CCmax; settings: mean of both orientations
T43 chain: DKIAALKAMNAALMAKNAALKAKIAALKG

P2-AA-1HGe-Q = target: T44, P2-AA-1HGe-Q; assay: two-hybrid library CCmax; settings: mean of both orientations
T44 chain: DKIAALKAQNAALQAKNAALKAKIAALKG

P2-AA-1HGe-T = target: T45, P2-AA-1HGe-T; assay: two-hybrid library CCmax; settings: mean of both orientations
T45 chain: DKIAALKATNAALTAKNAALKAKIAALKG

P2-AA-1HGe-W = target: T46, P2-AA-1HGe-W; assay: two-hybrid library CCmax; settings: mean of both orientations
T46 chain: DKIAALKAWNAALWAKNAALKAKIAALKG

P2-AA = target: T47, P2-AA; assay: two-hybrid library CCmax; settings: mean of both orientations
T47 chain: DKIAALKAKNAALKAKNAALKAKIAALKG

P3-AA = target: T48, P3-AA; assay: two-hybrid library CCmax; settings: mean of both orientations
T48 chain: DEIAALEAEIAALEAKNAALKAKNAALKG

P4-AA = target: T49, P4-AA; assay: two-hybrid library CCmax; settings: mean of both orientations
T49 chain: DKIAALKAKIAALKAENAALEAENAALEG

P7-AA = target: T50, P7-AA; assay: two-hybrid library CCmax; settings: mean of both orientations
T50 chain: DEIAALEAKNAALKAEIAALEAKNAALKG

P8-AA = target: T51, P8-AA; assay: two-hybrid library CCmax; settings: mean of both orientations
T51 chain: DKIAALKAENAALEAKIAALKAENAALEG

P9-AA = target: T52, P9-AA; assay: two-hybrid library CCmax; settings: mean of both orientations
T52 chain: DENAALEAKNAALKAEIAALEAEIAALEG

zCON9_A = target: T53, zCON9_A; assay: two-hybrid library CCmax
T53 chain: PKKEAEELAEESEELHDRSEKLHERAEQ

zCON9_B = target: T54, zCON9_B; assay: two-hybrid library CCmax; settings: mean of both orientations
T54 chain: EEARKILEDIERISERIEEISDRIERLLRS

zCON9_D = target: T55, zCON9_D; assay: two-hybrid library CCmax; settings: mean of both orientations
T55 chain: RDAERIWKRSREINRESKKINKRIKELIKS

DEIAQLEQENAELEQENAELEWEIAQLEQ [4H145-bA]
interaction score (4H145-bA): -0.795
interaction score (4H2619-bA): -0.672
interaction score (4H2691-bA): -0.624
interaction score (4H3070-bA): 2.5
interaction score (4H342-bA): -1.12
interaction score (4H3632-bA): -1.06
interaction score (4H496-bA): -1.06

DEIAALEAENAALEAENAALEAEIAALEG [P1-AA]
interaction score (P1-AA): -1.9
interaction score (P10-AA): -0.307
interaction score (P11-AA): -1.27
interaction score (P12-AA): -0.335
interaction score (P2-AA-12HAA-D): -1.91
interaction score (P2-AA-12HAA-E): -0.168
interaction score (P2-AA-12HAA-H): 1.67
interaction score (P2-AA-12HAA-I): 1.38
interaction score (P2-AA-12HAA-K): 1.32
interaction score (P2-AA-12HAA-L): 0.342
interaction score (P2-AA-12HAA-R): 1.86
interaction score (P2-AA-12HAA-S): 1.74
interaction score (P2-AA-12HAA-T): 1.34
interaction score (P2-AA-12HAA-V): 1.26
interaction score (P2-AA-12HAA-Y): 1.57
interaction score (P2-AA-12HGe-A): 1.83
interaction score (P2-AA-12HGe-D): -1.71
interaction score (P2-AA-12HGe-E): 0.914
interaction score (P2-AA-12HGe-H): 2.06
interaction score (P2-AA-12HGe-M): 1.8
interaction score (P2-AA-12HGe-Q): 1.62
interaction score (P2-AA-12HGe-R): 2.37
interaction score (P2-AA-12HGe-S): 0.568
interaction score (P2-AA-12HGe-T): 1.19
interaction score (P2-AA-12HGe-W): 1.66
interaction score (P2-AA-1HAA-D): 1.71
interaction score (P2-AA-1HAA-E): 1.78
interaction score (P2-AA-1HAA-H): 2.1
interaction score (P2-AA-1HAA-I): 2.01
interaction score (P2-AA-1HAA-R): 1.51
interaction score (P2-AA-1HAA-S): 1.81
interaction score (P2-AA-1HAA-T): 1.69
interaction score (P2-AA-1HAA-V): 1.86
interaction score (P2-AA-1HGe-A): 2.03
interaction score (P2-AA-1HGe-D): 1.9
interaction score (P2-AA-1HGe-M): 1.87
interaction score (P2-AA-1HGe-Q): 1.97
interaction score (P2-AA-1HGe-T): 2.12
interaction score (P2-AA-1HGe-W): 2.42
interaction score (P2-AA): 2.11
interaction score (P3-AA): -0.804
interaction score (P4-AA): -1.71
interaction score (P7-AA): -1.7
interaction score (P8-AA): -1.57
interaction score (P9-AA): -1.49
interaction score (zCON9_A): -1.8
interaction score (zCON9_B): -1.67
interaction score (zCON9_D): -2.59
